This note sets out measurements from US20170173125A1.

In test [1] the target is TCRs of CD8+CD40Ig Tregs (CD8+CD45RClow Tregs from CD40Ig-treated long-term allograft bearing LEW.1A recipients). The test can be described thus: cell-based or functional assay.
Test [2] concerns the target TCRs of naive splenic CD8+CD45RClow Tregs. The test can be described thus: PE and APC tetramer double staining, flow cytometry, 10 µg/mL, 1 hour at 4° C. In general terms: Flow cytometry measures light scatter and fluorescence of single cells or particles in a stream.
The target in test [3] is TCRs of CD8+CD40Ig Tregs (CD8+CD45RClow Tregs from CD40Ig-treated long-term allograft bearing LEW.1A recipients). The description is as above.
Test [4] shares this target. Put plainly: BV421 control tetramer staining, flow cytometry, 10 µg/mL.

Where no end group is shown, it is not given here.

Consider YLRYDSDVGEYRAVTE [peptide Bu31], for which the CD25 expression at the cell surface of CD8+CD40Ig Tregs after 6 days with matured syngeneic pDCs, fold vs. no peptide in test [1] worked out at 1.67 fold.

As for YLRYDSDVGEYR (peptide-MHC, part only; not given: MHC heavy chain and b2m, part only, also: bound in MHC class I RT1.A^a tetramer with streptavidin-PE or -APC) [MHC class I tetramer RT1.A^a/Bu31-10], the precursor frequency (tetramer-stained cells) in naive splenic CD8+CD45RClow Tregs in test [2] was 0.187%. In test [3], this molecule gave a percent of Bu31-specific (tetramer-stained) cells among CD8+CD40Ig Tregs, graft of 1.11% and a percent of Bu31-specific (tetramer-stained) cells among CD8+CD40Ig Tregs, spleen of 0.281%.

In test [4], ILFPSSERLISNR (peptide-MHC, part only; not given: MHC heavy chain and b2m, part only, also: bound in MHC class I RT1.A^a tetramer with streptavidin-BV421) [control tetramer RT1.A^a/MTF-E] displayed a percent non-specific staining among Bu31-10-specific cells of 1.6%.
